Values quoted from earlier work in paper PMC7930624.
Several values for one entry are separate records, joined by “and”; a condition that tells them apart may be missing. Equal values may be shown once.

Biological target: ACE2 (Homo sapiens) (UniProt Q9BYF1)
Sequence (Q9BYF1 18-740): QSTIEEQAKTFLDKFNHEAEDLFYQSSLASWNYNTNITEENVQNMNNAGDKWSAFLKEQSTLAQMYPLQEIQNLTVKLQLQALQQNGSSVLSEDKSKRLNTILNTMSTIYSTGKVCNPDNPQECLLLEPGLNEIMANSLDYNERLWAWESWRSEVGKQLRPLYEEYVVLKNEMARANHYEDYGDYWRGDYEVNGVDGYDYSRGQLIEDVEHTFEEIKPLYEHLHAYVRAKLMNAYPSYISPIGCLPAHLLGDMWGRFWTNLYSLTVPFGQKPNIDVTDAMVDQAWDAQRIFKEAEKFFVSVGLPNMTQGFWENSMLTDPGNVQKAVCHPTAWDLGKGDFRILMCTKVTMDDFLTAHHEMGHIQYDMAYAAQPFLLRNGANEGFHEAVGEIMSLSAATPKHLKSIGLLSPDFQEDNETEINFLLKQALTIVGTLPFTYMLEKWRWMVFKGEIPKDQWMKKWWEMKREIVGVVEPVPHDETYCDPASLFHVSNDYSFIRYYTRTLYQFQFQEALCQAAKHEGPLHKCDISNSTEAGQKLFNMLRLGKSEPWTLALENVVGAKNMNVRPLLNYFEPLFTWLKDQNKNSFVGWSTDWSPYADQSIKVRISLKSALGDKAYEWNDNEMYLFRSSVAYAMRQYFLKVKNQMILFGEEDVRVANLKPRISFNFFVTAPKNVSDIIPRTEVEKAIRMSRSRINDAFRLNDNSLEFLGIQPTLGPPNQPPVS

Sequence of Human defensin-5 (Q01523 63-94): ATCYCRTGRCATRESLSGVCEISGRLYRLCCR

Human defensin-5 (from UniProt Q01523)
Kd: 39.3 nM and 76.2 nM
